Assay results published in patent publication US7838266B2, “Proaerolysin containing protease activation sequences and methods of use for treatment of prostate cancer” (University of Victoria Innovation and Development …, priority 2001, dated 2010).
No end group written: not given here.

What was measured:
[1] = molecular target: PSA (Homo sapiens, UniProt P07288); conditions: cited from earlier work; for Kcat / Km: aminomethyl coumarin labeled peptides, 50 mM Tris, 0.1 M NaCl, pH 7.8
[2] = test system: mice; experiment: In vivo toxicity after single intravenous injection
Method: To determine in vivo toxicity, proaerolysin variants were administered to mice intravenously.

[3] = test system: human LNCaP prostate cancer xenografts which produce PSA; experiment: Intratumoral injection into PSA-producing LNCaP xenografts; type: in vivo; conditions: nude mice
Method: The percent of tumor within sample was determined by calculating the ratio of viable tumor to total tumor area following image analysis of thin tumor sections.

[4] = test system: E14 mouse T-cell lymphoma cells (ATCC TIB-39); experiment: In vitro toxicity, MTS/PMS cell viability assay; type: cell-based; conditions: 4 hours at 37° C., 1×10^−13 M-1×10^−7M toxin, FIG. 3; read-out: LC50 (the source's name)
Method: To determine in vitro toxicity, a cell viability assay was performed as follows. E14 mouse T-cell lymphoma cells (ATCC TIB-39) were cultured at 10^+5 cells per well in MTS/PMS Cell Titer 96 (Promega). […] Cell viability was subsequently determined by reading the plate on a plate reader, as directed by the manufacturer of the MTS/PMS kit.

PSA, sequence (P07288 25-261): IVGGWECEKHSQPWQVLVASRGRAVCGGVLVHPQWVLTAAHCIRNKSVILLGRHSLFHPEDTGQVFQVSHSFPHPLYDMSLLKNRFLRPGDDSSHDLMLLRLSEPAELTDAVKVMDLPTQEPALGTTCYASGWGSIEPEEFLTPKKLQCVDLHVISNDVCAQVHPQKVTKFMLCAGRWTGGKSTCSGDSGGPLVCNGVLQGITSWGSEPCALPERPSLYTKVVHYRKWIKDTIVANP

Substance | Kcat [1] [s⁻¹] | Km [1] [µM] | efficiency and specificity of hydrolysis by PSA [1] | lethality after dose of 1 μg ([2]; intravenous, 1 μg) | LD100 at 24 hours (dose that kills 100% of animals within 24 hours) ([2]; single IV injection, total dose) [µg] | antitumor effect against LNCaP xenografts [3] | CC50 [4] [nM]
EHSSKLQ (also: fluorescently labeled (aminomethyl coumarin); listed as Homo sapiens) [EHSSKLQ (20), PSA substrate peptide] | 0.012 | 1160 |  |  |  |  | 
ATKSKQH (also: fluorescently labeled (aminomethyl coumarin); listed as Homo sapiens) [ATKSKQH (17), PSA substrate peptide] | 0.0091 | 1310 | not efficient, but were specifically hydrolyzed by PSA |  |  |  | 
KGISSQY (also: fluorescently labeled (aminomethyl coumarin); listed as Homo sapiens) [KGISSQY (15), PSA substrate peptide] | 0.043 | 160 | efficiently but not specifically hydrolyzed by PSA |  |  |  | 
SKLQ (also: fluorescently labeled (aminomethyl coumarin); listed as Homo sapiens) [SKLQ (21), PSA substrate peptide] | 0.020 | 813 |  |  |  |  | 
LGGSSQL (also: fluorescently labeled (aminomethyl coumarin); listed as Homo sapiens) [LGGSSQL (19), PSA substrate peptide] | 0.0037 | 900 | not efficient, but were specifically hydrolyzed by PSA |  |  |  | 
HSSKLQ (listed as Homo Sapiens) [HSSKLQ (5), PSA substrate peptide] | 0.011 | 470 |  |  |  |  | 
Wild-type proaerolysin |  |  |  | caused death within one hour | 0.1 | minimal effect | 0.15
SRKSQQY (also: fluorescently labeled (aminomethyl coumarin); listed as Homo sapiens) [SRKSQQY (16), PSA substrate peptide] | 0.023 | 90 | efficiently but not specifically hydrolyzed by PSA |  |  |  | 
KGLSSQC (also: fluorescently labeled (aminomethyl coumarin); listed as Homo sapiens) [KGLSSQC (18), PSA substrate peptide] | 0.0017 | 300 |  |  |  |  | 
